Target: Clumping factor A (ClfA) on S. aureus LACΔspaΔsbi (Staphylococcus aureus USA300 LAC Δspa, …, UniProt A0A0H2XG16)
Test: flow cytometry on cells

B1: T1-2-IgG1 (antibody, V domains shown)
VH: QVQLKESGPGLVAPSQSLSITCAISGFSLSRYSVHWVRQPPGKGLEWLGMIWGGGNTDYNSALKSRLSISKDNSKSQVFLKMNSLQTDDTAMYYCARKGEFYYGYDGFVYWGQGTLVTVSA
VL: NIMMTQSPSSLAVSAGEKVTMSCKSSQSVLYSSNQKNYLAWYQQKPGQSPKLLIYWASTRESGVPDRFTGSGSGTDFTLTISSVQAEDLAVYYCHQYLSSYTFGGGTKLEIK
binding result: binds
